Cell fusion (IC90) and HIV infectivity (IC90) data for five substances are collected here from patent US6479055.

The experiment addresses viral gp41 (HIV-1 transmembrane protein) of HIV-1IIIB (HIV-1IIIB) (UniProt P03377). The experiment can be described thus: cell-based or functional assay.
Substance “DP178 (SEQ ID NO:1), synthetic peptide of amino acids 638 to 673 of HIV-1LAI gp41” yielded a Cell fusion (IC90) of 1 nM and an HIV infectivity (IC90) of 80 nM.
The corresponding values for “M41-P (M41 with an Ile to Pro mutation at position 578) (from UniProt P0AEX9 27-392; P03377 540-686)” are 83 nM and 66 nM.
“DP107 (SEQ ID NO:25), synthetic peptide of residues 558 to 595 of HIV-1LAI gp41” displayed a Cell fusion (IC90) of 1000 nM and an HIV infectivity (IC90) of 1000 nM.
Take “M41-PΔ178 (M41-P from which the DP-178 region has been deleted; gp41 amino acids 540-642 with Ile578Pro) (from UniProt P03377 540-642)”: the Cell fusion (IC90) is > 50000 nM and the HIV infectivity (IC90) is > 8000 nM.
The corresponding values for “M41 (maltose binding protein fused to the extracellular domain of HIV-1 gp41, residues 540-686) (from UniProt P0AEX9 27-392; P03377 540-686)” are > 50000 nM and > 16000 nM.
